Reference: publication PMC3082181 (The Journal of Cell Biology, 2011)

T1: Flag-Munc18c-Y219F (mouse, UniProt Q60770 1-592, Y219F)
T1 sequence: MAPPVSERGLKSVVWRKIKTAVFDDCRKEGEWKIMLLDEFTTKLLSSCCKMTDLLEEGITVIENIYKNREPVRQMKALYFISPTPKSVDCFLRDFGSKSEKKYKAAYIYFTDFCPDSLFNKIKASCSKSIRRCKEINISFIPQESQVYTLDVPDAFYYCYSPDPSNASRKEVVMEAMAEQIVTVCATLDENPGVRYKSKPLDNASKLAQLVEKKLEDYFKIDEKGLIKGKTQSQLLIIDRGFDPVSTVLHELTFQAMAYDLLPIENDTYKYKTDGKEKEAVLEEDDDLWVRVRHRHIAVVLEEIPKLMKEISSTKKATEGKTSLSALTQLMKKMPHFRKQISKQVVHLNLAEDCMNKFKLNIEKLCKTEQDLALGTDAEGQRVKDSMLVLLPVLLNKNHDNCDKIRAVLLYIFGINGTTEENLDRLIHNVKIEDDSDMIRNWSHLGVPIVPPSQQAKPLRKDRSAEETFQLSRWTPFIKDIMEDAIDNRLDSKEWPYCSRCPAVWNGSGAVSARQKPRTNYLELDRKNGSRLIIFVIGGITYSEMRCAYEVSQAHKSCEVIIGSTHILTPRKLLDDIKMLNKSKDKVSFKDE

T2: Flag-Munc18c-Y521F (mouse, UniProt Q60770 1-592, Y521F)
T2 sequence: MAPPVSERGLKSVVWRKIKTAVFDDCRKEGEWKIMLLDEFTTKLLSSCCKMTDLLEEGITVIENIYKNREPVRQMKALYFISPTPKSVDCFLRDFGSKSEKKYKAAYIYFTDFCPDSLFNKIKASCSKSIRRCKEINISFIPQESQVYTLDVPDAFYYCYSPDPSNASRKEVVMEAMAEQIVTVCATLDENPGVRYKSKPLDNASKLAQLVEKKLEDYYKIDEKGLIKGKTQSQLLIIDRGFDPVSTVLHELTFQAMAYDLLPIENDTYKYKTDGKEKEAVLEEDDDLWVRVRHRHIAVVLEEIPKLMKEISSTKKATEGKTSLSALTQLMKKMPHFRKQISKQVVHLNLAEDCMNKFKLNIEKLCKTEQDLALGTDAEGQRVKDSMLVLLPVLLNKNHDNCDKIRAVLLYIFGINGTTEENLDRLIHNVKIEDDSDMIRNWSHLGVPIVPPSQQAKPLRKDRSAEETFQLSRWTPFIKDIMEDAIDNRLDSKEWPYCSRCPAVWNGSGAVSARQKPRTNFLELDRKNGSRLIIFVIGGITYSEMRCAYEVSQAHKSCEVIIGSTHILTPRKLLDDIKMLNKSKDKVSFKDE

T3: Munc18c (mouse (endogenous in 3T3-L1 adipocytes …, UniProt Q60770 1-592))
T3 sequence: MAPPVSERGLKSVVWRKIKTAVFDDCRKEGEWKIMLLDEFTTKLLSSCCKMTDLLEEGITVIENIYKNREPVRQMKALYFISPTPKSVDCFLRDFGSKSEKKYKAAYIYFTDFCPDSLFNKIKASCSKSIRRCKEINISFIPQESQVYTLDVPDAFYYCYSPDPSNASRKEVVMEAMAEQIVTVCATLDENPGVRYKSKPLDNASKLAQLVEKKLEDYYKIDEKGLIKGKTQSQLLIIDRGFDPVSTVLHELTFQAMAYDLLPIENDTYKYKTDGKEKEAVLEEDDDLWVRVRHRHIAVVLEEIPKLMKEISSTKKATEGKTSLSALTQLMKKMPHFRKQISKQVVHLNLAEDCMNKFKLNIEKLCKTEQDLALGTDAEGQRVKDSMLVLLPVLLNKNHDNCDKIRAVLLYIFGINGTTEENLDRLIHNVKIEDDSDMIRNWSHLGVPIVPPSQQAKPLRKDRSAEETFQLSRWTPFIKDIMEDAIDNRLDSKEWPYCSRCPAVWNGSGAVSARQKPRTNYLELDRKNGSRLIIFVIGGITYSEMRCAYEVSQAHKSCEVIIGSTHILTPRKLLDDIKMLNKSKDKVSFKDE


What was measured:
Assay in all cases: co-IP
Flag-Munc18c-Y219F = biological target: T1, Flag-Munc18c-Y219F
Flag-Munc18c-Y521F = biological target: T2, Flag-Munc18c-Y521F
Munc18c = biological target: T3, Munc18c

Binder	ratio syntaxin 4/Flag-Munc18c, insulin-stimulated versus basal = 1 (Flag-Munc18c-Y219F)	ratio syntaxin 4/Flag-Munc18c, insulin-stimulated versus basal = 1 (Flag-Munc18c-Y521F)	fold change of coprecipitated IR, insulin versus unstimulated (Munc18c) [fold]
full-length syntaxin 4 (natural protein) MRDRTHELRQGDNISDDEDEVRVALVVHSGAARLSSPDDEFFQKVQTIRQTMAKLESKVRELEKQQVTILATPLPEESMKQGLQNLREEIKQLGREVRAQLKAIEPQKEEADENYNSVNTRMKKTQHGVLSQQFVELINKCNSMQSEYREKNVERIRRQLKITNAGMVSDEELEQMLDSGQSEVFVSNILKDTQVTRQALNEISARHSEIQQLERSIRELHEIFTFLATEVEMQGEMINRIEKNILSSADYVERGQEHVKIALENQKKARKKKVMIAICVSVTVLILAVIIGITITVG	1	1.6	–
insulin receptor (receptor) chain 1: HLYPGEVCPGMDIRNNLTRLHELENCSVIEGHLQILLMFKTRPEDFRDLSFPKLIMITDYLLLFRVYGLESLKDLFPNLTVIRGSRLFFNYALVIFEMVHLKELGLYNLMNITRGSVRIEKNNELCYLATIDWSRILDSVEDNYIVLNKDDNEECGDVCPGTAKGKTNCPATVINGQFVERCWTHSHCQKVCPTICKSHGCTAEGLCCHKECLGNCSEPDDPTKCVACRNFYLDGQCVETCPPPYYHFQDWRCVNFSFCQDLHFKCRNSRKPGCHQYVIHNNKCIPECPSGYTMNSSNLMCTPCLGPCPKVCQILEGEKTIDSVTSAQELRGCTVINGSLIINIRGGNNLAAELEANLGLIEEISGFLKIRRSYALVSLSFFRKLHLIRGETLEIGNYSFYALDNQNLRQLWDWSKHNLTITQGKLFFHYNPKLCLSEIHKMEEVSGTKGRQERNDIALKTNGDQASCENELLKFSFIRTSFDKILLRWEPYWPPDFRDLLGFMLFYKEAPYQNVTEFDGQDACGSNSWTVVDIDPPQRSNDPKSQTPSHPGWLMRGLKPWTQYAIFVKTLVTFSDERRTYGAKSDIIYVQTDATNPSVPLDPISVSNSSSQIILKWKPPSDPNGNITHYLVYWERQAEDSELFELDYCLKGLKLPSRTWSPPFESDDSQKHNQSEYDDSASECCSCPKTDSQILKELEESSFRKTFEDYLHNVVFVPRPS chain 2: SLEEVGNVTATTLTLPDFPNVSSTIVPTSQEEHRPFEKVVNKESLVISGLRHFTGYRIELQACNQDSPDERCSVAAYVSARTMPEAKADDIVGPVTHEIFENNVVHLMWQEPKEPNGLIVLYEVSYRRYGDEELHLCVSRKHFALERGCRLRGLSPGNYSVRVRATSLAGNGSWTEPTYFYVTDYLDVPSNIAKIIIGPLIFVFLFSVVIGSIYLFLRKRQPDGPMGPLYASSNPEYLSASDVFPSSVYVPDEWEVPREKITLLRELGQGSFGMVYEGNAKDIIKGEAETRVAVKTVNESASLRERIEFLNEASVMKGFTCHHVVRLLGVVSKGQPTLVVMELMAHGDLKSHLRSLRPDAENNPGRPPPTLQEMIQMTAEIADGMAYLNAKKFVHRDLAARNCMVAHDFTVKIGDFGMTRDIYETDYYRKGGKGLLPVRWMSPESLKDGVFTASSDMWSFGVVLWEITSLAEQPYQGLSNEQVLKFVMDGGYLDPPDNCPERLTDLMRMCWQFNPKMRPTFLEIVNLLKDDLHPSFPEVSFFYSEENKAPESEELEMEFEDMENVPLDRSSHCQREEAGGREGGSSLSIKRTYDEHIPYTHMNGGKKNGRVLTLPRSNPS	–	–	~2
